Test results reported in the supplement of paper PMC10567573.
± gives the standard deviation.

Experiment: protein stability index of a GFP-peptide fusion (GPS, HEK-293T) (PSI 1-6); higher = more stable
Conditions: c terminus: a fixed tail appended
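Also: 24-mer peptide tiles fused after GFP, lentivirally expressed, FACS-sorted into six equal bins by GFP/DsRed ratio, decoded by Illumina sequencing, PSI is the read-weighted mean bin number.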

Row | Sequence | protein stability index (treatment: DMSO) | protein stability index (treatment: MLN4924 1 uM, 8 h)
1 | AAAYGHALEQYEGESWRESARYLE [P3H4] | 4.19 ± 0.23 | 4.21 ± 0.21
2 | AAGEPLECPTCGHSYNVTQRRPRV [RNF208] | 3.79 ± 0.16 | 4.18 ± 0.21
3 | AAGGVPGGGSNNGKTPVCHQCHKV [PDLIM7] | 3.32 ± 0.62 | 3.85 ± 0.56
4 | AAGKAEVVLGNIIKKKGWRRSSLV [KCNAB2] | 2.87 ± 0.24 | 2.96 ± 0.31
5 | AAINSIYSNTDANILFYVVGLRNT [GLT8D2] | 2.97 ± 0.91 | 2.75 ± 0.73
6 | AAKQNHVTADDFVQTSVIGSNGYI [EHMT1] | 3.56 ± 0.17 | 3.68 ± 0.1
7 | AALDGGRSLEELTRLAFELFAEEQ [LPCAT4] | 2.91 ± 0.24 | 3.33 ± 0.38
8 | AAQELENQMKERQGLFFDMEAYLP [TMEM120A] | 3.69 ± 0.27 | 3.87 ± 0.21
9 | AARGKERCVRVFLEHGADPTVKDL [ASB7] | 3.73 ± 0.17 | 3.76 ± 0.38
10 | AATGGATLAQTISEAAIGGAMLGQ [HDAC6] | 4.1 ± 0.57 | 4.11 ± 0.21
11 | ACFLVRGLLLRGAVDGILHMFTPK [SLC6A17] | 2.39 ± 0.73 | 2.83 ± 1.2
12 | ACNFEPHESFFSLFSDPRSTRLTR [ZER1] | 2.86 ± 0.22 | 2.92 ± 0.21
13 | ADGDGGGGQCCRRQDSPSPDFYKQ [PCDHGC5] | 4.67 ± 0.25 | 4.44 ± 0.4
14 | ADKKRSGKKKISKADIGAPSGFKH [WAS] | 4.63 ± 0.27 | 4.87 ± 0.24
15 | ADPLQLNKALSIILHLICLLEKVP [FEM1C] | 3 ± 0.24 | 3.16 ± 0.9
16 | AEAAPELDLFAMKPPETSVPVVTP [SNAP91] | 4.89 ± 0.15 | 4.98 ± 0.1
17 | AEFILLGLLEAPGLQPVVFVLFLF [OR3A1] | 2.68 ± 0.32 | 2.95 ± 0.4
18 | AEKSVAPSNTGSRTTSVRCRGIPR [NEK8] | 4.63 ± 0.16 | 4.7 ± 0.26
19 | AEPSRFSSSDSDFDDEEPRKFYVH [FCHO1] | 4.87 ± 0.18 | 4.87 ± 0.13
20 | AEQEPTRKLFEVESVTHHDYRMEL [SPAG8] | 4.16 ± 0.16 | 4.33 ± 0.18
21 | AESDYSNNIMKCRSRYDGHRIWMY [LOXL2] | 2.4 ± 0.29 | 2.1 ± 0.38
22 | AFHINKGLVKKYMNSLLIGELSPE [FADS1] | 2.45 ± 0.47 | 2.32 ± 0.26
23 | AGGAPGSPIPSPPGPGDDLCSDLE [HES6] | 5.51 ± 0.45 | 5.34 ± 0.4

Row | Sequence | protein stability index (treatment: DMSO) | protein stability index (treatment: MLN4924 1 uM, 8 h)
24 | AGIELIIEDDIRPEKQKRKPGLRR [MYBL2] | 3.63 ± 0.24 | 4.26 ± 0.43
25 | AGREVFDYSHRQKEQDVEKELRDG [NFE2L1] | 4.99 ± 0.25 | 5.53 ± 0.52
26 | AGRRMFPSYKVKVTGLNPKTKYIL [TBX5] | 2.12 ± 0.4 | 2.2 ± 0.29
27 | AGYEVDKIAQNLDFVNLMAYDFHG [CHIT1] | 2.28 ± 0.41 | 2.36 ± 0.19
28 | AGYYELAQVLLAMHANVEDRGIKG [ANKRD17] | 2.02 ± 0.21 | 1.96 ± 0.34
29 | AHAVLGQHSHVVRYFSAWAEDDHM [WEE1] | 3.55 ± 0.43 | 3.71 ± 0.057
30 | AIMRSPQMVSAIVRTMQNTNDVET [CTNNB1] | 3.77 ± 0.098 | 3.81 ± 0.14
31 | AITRVSDRFSGETSAAALSPMSAA [SMTNL2] | 4.06 ± 0.15 | 3.63 ± 0.29
32 | AKGIPQRAPPKRKRKRVKQRINTY [PCMTD1] | 4.41 ± 0.14 | 4.58 ± 0.16
33 | AKSLSFRKGELVTASKAIIEKEYQ [ADD1] | 3.71 ± 0.19 | 3.94 ± 0.45
34 | AKVNYVKNNICFMSHHQEELVPKQ [SLC2A12] | 3 ± 0.41 | 3.16 ± 0.41
35 | ALDSADLPPPSALKKGSKEKQADF [NFE2L1] | 5.33 ± 0.2 | 5.39 ± 0.21
36 | ALHHVHTHLILHRDLKTQNILLDK [NEK8] | 2.25 ± 0.19 | 2.29 ± 0.25
37 | ALIETSYVKVLHHMVKISGGPRIS [MAGEA6] | 2.93 ± 0.41 | 2.88 ± 0.51
38 | ALKHPWISHRSTVASCMHRQETVD [CAMK2A] | 3.18 ± 0.13 | 3.35 ± 0.16
39 | ALLFTGIAVLGIVMLKRIHSLYRR [SCAMP3] | 2.2 ± 0.52 | 1.96 ± 0.25
40 | ALQTLLTLIVVDASGLGLEITTQF [SLC19A2] | 3 ± 0.39 | 3.31 ± 0.56
41 | ALSFTLLGSAPLDQEPLLSIDLGT [NEK8] | 2.29 ± 0.36 | 2.44 ± 0.23
42 | AMFAADPKKPIGGNIIAHASTTRL [RAD51] | 3.32 ± 0.087 | 3.39 ± 0.12
43 | AMFLGDAAAHWYGGAEMRTQHWPI [MYORG] | 2.41 ± 0.81 | 2.17 ± 0.25
44 | AMFPETLDEGMQIPSTQFDAAHPT [CTNNB1] | 4.5 ± 0.091 | 4.49 ± 0.28
45 | ANFSLGSINQRLNKRERSKLKNLR [RNF180] | 2.91 ± 0.35 | 3.28 ± 0.43
46 | ANLAASGGYAIAVVLLQGAELLLA [TSPAN10] | 2.97 ± 0.54 | 3.05 ± 0.92

Row | Sequence | protein stability index (treatment: DMSO) | protein stability index (treatment: MLN4924 1 uM, 8 h)
47 | APANVAKIQLRLAGQKRKHSEGRV [LOXL2] | 3.88 ± 0.13 | 4.53 ± 0.32
48 | APCRSAQASVSCALEALEPFWEVL [HDAC6] | 3.32 ± 0.59 | 2.69 ± 0.82
49 | APGFGEDVPNRLVDNIDMIDGDGD [BEX5] | 5.5 ± 0.23 | 5.59 ± 0.19
50 | APPLPGAESFPGSQVMGSGRGSLS [PLEKHN1] | 4.82 ± 0.28 | 4.61 ± 0.2
51 | APPRRLRSRKVSCPLTRSNGDLSR [FCHO1] | 4.16 ± 0.17 | 4.34 ± 0.062
52 | APVANSYRGTLKRQPAFDTFDGSL [ETS2] | 3.4 ± 0.097 | 3.42 ± 0.13
53 | AQKALDLPSSGEGLAFFTFPNIAS [HMOX1] | 2.88 ± 0.2 | 2.96 ± 0.25
54 | ARLASPLPREEEIVFPEKLNGSVL [ADAMTS4] | 4.01 ± 0.42 | 4.16 ± 0.15
55 | ARLQDFQELELVLMISENNFLFRN [ANKRD40] | 2.97 ± 0.63 | 2.66 ± 0.58
56 | ARQHALYIWEKSIGNLVKILHGTR [RBBP5] | 2.26 ± 0.36 | 2.5 ± 0.41
57 | ARRELQAEREALQARLRDVSRREG [ZBED3] | 4.79 ± 0.15 | 4.8 ± 0.18
58 | ARYAQQKHRIRRVLIVDWDVHHGQ [HDAC6] | 2.33 ± 0.19 | 2.31 ± 0.42
59 | ASVVLPARELQEALPEAPAPLLPH [BCL2L13] | 4.34 ± 0.17 | 4.35 ± 0.22
60 | ATDMISIFEPPVRNSGIIGGKYLG [EFHC1] | 2.92 ± 0.25 | 3.16 ± 0.21
61 | AVINDIANLPVPTIAAIDGLALGG [AUH] | 2.79 ± 0.21 | 2.62 ± 0.23
62 | AYGNRTECRNPQELESIRQDRDAL [FEM1B] | 4.71 ± 0.24 | 4.68 ± 0.16
63 | AYHDPMLKLSIMSEEELTHIFGDL [NET1] | 3.28 ± 0.24 | 3.5 ± 0.48
64 | CAERLQSEEQVSKNLFGPPLESAF [FCHO1] | 3.36 ± 1.1 | 3.58 ± 0.52
65 | CAINKVGVSFSTVENELMISYLMF [FAM98B] | 2.63 ± 0.48 | 2.81 ± 0.41
66 | CAKYTYPVCSALLDPVLQAPGTGP [FANCE] | 2.65 ± 0.14 | 2.26 ± 0.17
67 | CDLFDREIVVTISWAKSIPGFSSL [ESRRA] | 3.28 ± 0.16 | 2.97 ± 0.4
68 | CEGRRTRFRSCNTEDCPTGSALTF [ADAMTS4] | 3.42 ± 0.18 | 3.29 ± 0.092
69 | CEMEQQSQEYQILLDVKTRLEQEI [KRT16] | 4.1 ± 0.39 | 4.11 ± 0.37

Row | Sequence | protein stability index (treatment: DMSO) | protein stability index (treatment: MLN4924 1 uM, 8 h)
70 | CGINANDVKKLEEAGFHTVEAVAY [RAD51] | 2.58 ± 0.25 | 2.47 ± 0.22
71 | CMFCNEEFLGNRSVILNHMAREHA [ZNF277] | 3.62 ± 0.38 | 3.52 ± 0.46
72 | CQECGKTFRVSSDLIKHQRIHTEE [ZNF75A] | 5.26 ± 0.4 | 5.41 ± 0.31
73 | CQGQRLFEKLLQLTSQNIEIKLVS [PLD5] | 2.35 ± 0.19 | 2.29 ± 1.3
74 | CQVEVRLLLAYNSSARIPKCPWME [INTS4] | 3.21 ± 0.91 | 3.1 ± 0.25
75 | CSKQSGSFRKFRYGYNNVVTIPAG [ADAMTS4] | 2.3 ± 0.44 | 2.23 ± 0.35
76 | CSPALKRSHSDSLDHDIFQLIDPD [CDC25A] | 3.76 ± 0.34 | 3.72 ± 0.41
77 | CSYVVTRTISCHVQNGTYLQRVLQ [EMID1] | 2.44 ± 0.53 | 2.6 ± 0.36
78 | CVADNTNLYVFGGYNPDYDESGGP [KLHDC10] | 3.26 ± 0.14 | 3.18 ± 0.34
79 | CWDMYRHDIDCQWVDITDVPPGDY [LOXL2] | 2.7 ± 0.36 | 3.11 ± 0.3
80 | CWQGDPRVRPTFQEITSETEDLCE [RIPK4] | 4.44 ± 0.67 | 4.72 ± 0.24
81 | DALGMDPMMEHEMGGHHPGADYPV [CTNNB1] | 4.51 ± 0.36 | 4.55 ± 0.16
82 | DAQGSEMVTCKSEFYHDEFKRWIY [GAN] | 2.61 ± 0.46 | 2.52 ± 0.13
83 | DDTPEVLNRALSNLSSRWKNWWVR [CDS2] | 2.89 ± 0.058 | 3.12 ± 0.25
84 | DEDEVAAEEPNAAVPDEIPPLEGD [HSP90AB1] | 5.49 ± 0.47 | 5.61 ± 0.24
85 | DEHIASEEPAEKEDLLQQMLERRY [CLCN6] | 5.03 ± 0.2 | 4.98 ± 0.16
86 | DEIEFLKKLHEEELRDLQVSVESQ [PRPH] | 3.58 ± 0.7 | 4.07 ± 0.36
87 | DFANTIPGHGGIMDRFDCQYLMAT [CDS1] | 2.42 ± 0.21 | 2.63 ± 0.42
88 | DFCKVFLISGVTLDNCVEVGRIAN [KLHL13] | 2.47 ± 1.2 | 2.12 ± 0.47
89 | DFFWNETWYLKTIDICHDHFGWYL [DHCR7] | 3.26 ± 0.74 | 2.81 ± 0.35
